# Reference: patent US12099068B2, “Biomarkers for graft-versus-host disease” (Incyte Corporation, priority 2018, dated 2024)
# B1: EGLN1 (protein, UniProt Q9GZT9 2-426, looked up)
# Egl nine homolog 1: ANDSGGPGGPSPSERDRQYCELCGKMENLLRCSRCRSSFYCCKEHQRQDWKKHKLVCQGSEGALGHGVGPHQHSGPAPPAAVPPPRAGAREPRKAAARRDNASGDAAKGKVKAKPPADPAAAASPCRAAAGGQGSAVAAEAEPGKEEPPARSSLFQEKANLYPPSNTPGDALSPGGGLRPNGQTKPLPALKLALEYIVPCMNKHGICVVDDFLGKETGQQIGDEVRALHDTGKFTDGQLVSQKSDSSKDIRGDKITWIEGKEPGCETIGLLMSSMDDLIRHCNGKLGSYKINGRTKAMVACYPGNGTGYVRHVDNPNGDGRCVTCIYYLNKDWDAKVSGGILRIFPEGKAQFADIEPKFDRLLFFWSDRRNPHEVQPAYATRYAITVWYFDADERARAKVKYLTGEKGVRVELNKPSDSVGKDVF
# B2: STK4 (protein, UniProt Q13043 1-487, looked up)
# Serine/threonine-protein …: METVQLRNPPRRQLKKLDEDSLTKQPEEVFDVLEKLGEGSYGSVYKAIHKETGQIVAIKQVPVESDLQEIIKEISIMQQCDSPHVVKYYGSYFKNTDLWIVMEYCGAGSVSDIIRLRNKTLTEDEIATILQSTLKGLEYLHFMRKIHRDIKAGNILLNTEGHAKLADFGVAGQLTDTMAKRNTVIGTPFWMAPEVIQEIGYNCVADIWSLGITAIEMAEGKPPYADIHPMRAIFMIPTNPPPTFRKPELWSDNFTDFVKQCLVKSPEQRATATQLLQHPFVRSAKGVSILRDLINEAMDVKLKRQESQQREVDQDDEENSEEDEMDSGTMVRAVGDEMGTVRVASTMTDGANTMIEHDDTLPSQLGTMVINAEDEEEEGTMKRRDETMQPAKPSFLEYFEQKEKENQINSFGKSVPGPLKNSSDWKIPQDGDYEFLKSWTVEDLQKRLLALDPMMEQEIEEIRQKYQSKRQPILDAIEAKKRRQQNF
# B3: SNAP29 (protein, UniProt O95721 1-258, looked up)
# Synaptosomal-associated …: MSAYPKSYNPFDDDGEDEGARPAPWRDARDLPDGPDAPADRQQYLRQEVLRRAEATAASTSRSLALMYESEKVGVASSEELARQRGVLERTEKMVDKMDQDLKISQKHINSIKSVFGGLVNYFKSKPVETPPEQNGTLTSQPNNRLKEAISTSKEQEAKYQASHPNLRKLDDTDPVPRGAGSAMSTDAYPKNPHLRAYHQKIDSNLDELSMGLGRLKDIALGMQTEIEEQDDILDRLTTKVDKLDVNIKSTERKVRQL
# B4: SH2B3 (protein, UniProt Q9UQQ2 1-575, looked up)
# SH2B adapter protein 3: MNGPALQPSSPSSAPSASPAAAPRGWSEFCELHAVAAARELARQYWLFAREHPQHAPLRAELVSLQFTDLFQRYFCREVRDGRAPGRDYRDTGRGPPAKAEASPEPGPGPAAPGLPKARSSEELAPPRPPGPCSFQHFRRSLRHIFRRRSAGELPAAHTAAAPGTPGEAAETPARPGLAKKFLPWSLAREPPPEALKEAVLRYSLADEASMDSGARWQRGRLALRRAPGPDGPDRVLELFDPPKSSRPKLQAACSSIQEVRWCTRLEMPDNLYTFVLKVKDRTDIIFEVGDEQQLNSWMAELSECTGRGLESTEAEMHIPSALEPSTSSSPRGSTDSLNQGASPGGLLDPACQKTDHFLSCYPWFHGPISRVKAAQLVQLQGPDAHGVFLVRQSETRRGEYVLTFNFQGIAKHLRLSLTERGQCRVQHLHFPSVVDMLHHFQRSPIPLECGAACDVRLSSYVVVVSQPPGSCNTVLFPFSLPHWDSESLPHWGSELGLPHLSSSGCPRGLSPEGLPGRSSPPEQIFHLVPSPEELANSLQHLEHEPVNRARDSDYEMDSSSRSHLRAIDNQYTPL
# B5: WASF1 (protein, UniProt Q92558 1-559, looked up)
# Actin-binding protein WASF1: MPLVKRNIDPRHLCHTALPRGIKNELECVTNISLANIIRQLSSLSKYAEDIFGELFNEAHSFSFRVNSLQERVDRLSVSVTQLDPKEEELSLQDITMRKAFRSSTIQDQQLFDRKTLPIPLQETYDVCEQPPPLNILTPYRDDGKEGLKFYTNPSYFFDLWKEKMLQDTEDKRKEKRKQKQKNLDRPHEPEKVPRAPHDRRREWQKLAQGPELAEDDANLLHKHIEVANGPASHFETRPQTYVDHMDGSYSLSALPFSQMSELLTRAEERVLVRPHEPPPPPPMHGAGDAKPIPTCISSATGLIENRPQSPATGRTPVFVSPTPPPPPPPLPSALSTSSLRASMTSTPPPPVPPPPPPPATALQAPAVPPPPAPLQIAPGVLHPAPPPIAPPLVQPSPPVARAAPVCETVPVHPLPQGEVQGLPPPPPPPPLPPPGIRPSSPVTVTALAHPPSGLHPTPSTAPGPHVPLMPPSPPSQVIPASEPKRHPSTLPVISDARSVLLEAIRKGIQLRKVEEQREQEAKHERIENDVATILSRRIAVEYSDSEDDSEFDEVDWLE
# B6: CLEC4D (protein, UniProt Q8WXI8 1-215, looked up)
# C-type lectin domain family 4 …: MGLEKPQSKLEGGMHPQLIPSVIAVVFILLLSVCFIASCLVTHHNFSRCKRGTGVHKLEHHAKLKCIKEKSELKSAEGSTWNCCPIDWRAFQSNCYFPLTDNKTWAESERNCSGMGAHLMTISTEAEQNFIIQFLDRRLSYFLGLRDENAKGQWRWVDQTPFNPRRVFWHKNEPDNSQGENCVVLVYNQDKWAWNDVPCNFEASRICKIPGTTLN
# B7: TYMP (protein, UniProt P19971 11-482, looked up)
# Thymidine phosphorylase: APPAPGDFSGEGSQGLPDPSPEPKQLPELIRMKRDGGRLSEADIRGFVAAVVNGSAQGAQIGAMLMAIRLRGMDLEETSVLTQALAQSGQQLEWPEAWRQQLVDKHSTGGVGDKVSLVLAPALAACGCKVPMISGRGLGHTGGTLDKLESIPGFNVIQSPEQMQVLLDQAGCCIVGQSEQLVPADGILYAARDVTATVDSLPLITASILSKKLVEGLSALVVDVKFGGAAVFPNQEQARELAKTLVGVGASLGLRVAAALTAMDKPLGRCVGHALEVEEALLCMDGAGPPDLRDLVTTLGGALLWLSGHAGTQAQGAARVAAALDDGSALGRFERMLAAQGVDPGLARALCSGSPAERRQLLPRAREQEELLAPADGTVELVRALPLALVLHELGAGRSRAGEPLRLGVGAELLVDVGQRLRRGTPWLRVHRDGPALSGPQSRALQEALVLSDRAPFAAPSPFAELVLPPQQ
# B8: GCNT1 (protein, UniProt Q02742 1-428, looked up)
# Beta-1,3-galactosyl-O-glycosyl …: MLRTLLRRRLFSYPTKYYFMVLVLSLITFSVLRIHQKPEFVSVRHLELAGENPSSDINCTKVLQGDVNEIQKVKLEILTVKFKKRPRWTPDDYINMTSDCSSFIKRRKYIVEPLSKEEAEFPIAYSIVVHHKIEMLDRLLRAIYMPQNFYCIHVDTKSEDSYLAAVMGIASCFSNVFVASRLESVVYASWSRVQADLNCMKDLYAMSANWKYLINLCGMDFPIKTNLEIVRKLKLLMGENNLETERMPSHKEERWKKRYEVVNGKLTNTGTVKMLPPLETPLFSGSAYFVVSREYVGYVLQNEKIQKLMEWAQDTYSPDEYLWATIQRIPEVPGSLPASHKYDLSDMQAVARFVKWQYFEGDVSKGAPYPPCDGVHVRSVCIFGAGDLNWMLRKHHLFANKFDVDVDLFAIQCLDEHLRHKALETLKH
# B9: gal-8 (protein, UniProt O00214 1-317, looked up)
# Galectin-8: MMLSLNNLQNIIYNPVIPFVGTIPDQLDPGTLIVIRGHVPSDADRFQVDLQNGSSMKPRADVAFHFNPRFKRAGCIVCNTLINEKWGREEITYDTPFKREKSFEIVIMVLKDKFQVAVNGKHTLLYGHRIGPEKIDTLGIYGKVNIHSIGFSFSSDLQSTQASSLELTEISRENVPKSGTPQLRLPFAARLNTPMGPGRTVVVKGEVNANAKSFNVDLLAGKSKDIALHLNPRLNIKAFVRNSFLQESWGEEERNITSFPFSPGMYFEMIIYCDVREFKVAVNGVHSLEYKHRFKELSSIDTLEINGDIHLLEVRSW
# B10: TNFRSF11A (protein, UniProt Q9Y6Q6 30-616, looked up)
# Tumor necrosis factor …: IAPPCTSEKHYEHLGRCCNKCEPGKYMSSKCTTTSDSVCLPCGPDEYLDSWNEEDKCLLHKVCDTGKALVAVVAGNSTTPRRCACTAGYHWSQDCECCRRNTECAPGLGAQHPLQLNKDTVCKPCLAGYFSDAFSSTDKCRPWTNCTFLGKRVEHHGTEKSDAVCSSSLPARKPPNEPHVYLPGLIILLLFASVALVAAIIFGVCYRKKGKALTANLWHWINEACGRLSGDKESSGDSCVSTHTANFGQQGACEGVLLLTLEEKTFPEDMCYPDQGGVCQGTCVGGGPYAQGEDARMLSLVSKTEIEEDSFRQMPTEDEYMDRPSQPTDQLLFLTEPGSKSTPPFSEPLEVGENDSLSQCFTGTQSTVGSESCNCTEPLCRTDWTPMSSENYLQKEVDSGHCPHWAASPSPNWADVCTGCRNPPGEDCEPLVGSPKRGPLPQCAYGMGLPPEEEASRTEARDQPEDGADGRLPSSARAGAGSGSSPGGQSPASGNVTGNSNSTFISSGQVMNFKGDIIVVYVSQTSQEGAAAAAEPMGRPVQEETLARRDSFAGNGPRFPDPCGGPEGLREPEKASRPVQEQGGAKA
# B11: SIGLEC6 (protein, UniProt O43699 27-453, looked up)
# Sialic acid-binding Ig-like …: QERRFQLEGPESLTVQEGLCVLVPCRLPTTLPASYYGYGYWFLEGADVPVATNDPDEEVQEETRGRFHLLWDPRRKNCSLSIRDARRRDNAAYFFRLKSKWMKYGYTSSKLSVRVMALTHRPNISIPGTLESGHPSNLTCSVPWVCEQGTPPIFSWMSAAPTSLGPRTTQSSVLTITPRPQDHSTNLTCQVTFPGAGVTMERTIQLNVSYAPQKVAISIFQGNSAAFKILQNTSSLPVLEGQALRLLCDADGNPPAHLSWFQGFPALNATPISNTGVLELPQVGSAEEGDFTCRAQHPLGSLQISLSLFVHWKPEGRAGGVLGAVWGASITTLVFLCVCFIFRVKTRRKKAAQPVQNTDDVNPVMVSGSRGHQHQFQTGIVSDHPAEAGPISEDEQELHYAVLHFHKVQPQEPKVTDTEYSEIKIHK
# System: plasma proteins
# Experiment: Plasma proteins modulated between baseline and day 28 in responders (CR, VGPR, PR; n = 19), Example 6 (Table 13)
# Assay type: in vivo, human
# Conditions: plasma protein (OLINK NPX); responders (CR, VGPR, PR; n = 19); itacitinib 200 mg or 300 mg QD with corticosteroids; day 28 vs baseline
# Description: Due to the limited sample size, steroid-naive (N=10) and steroid-refractory (N=18) patients were combined for further analysis. Broad proteomic analysis of over 1000 proteins was conducted by OLINK Proteomics (Watertown, MA) using a proximity extension assay as described by the manufacturer. Data are presented as normalized protein expression (NPX) in log 2 scale. Statistical differences were evaluated using unpaired and paired t tests, one-way […] (ANOVA), and Pearson Correlation. Significance was conferred when P<0.05.
# Longitudinal differences in protein expression were analyzed by evaluating plasma samples from baseline/screening and day 28.
row,Molecule,"Fold Change, Decreased Expression from Baseline to Day 28"
1,B1,−1.3184
2,B2,−1.8393
3,B3,−1.6325
4,B4,−1.7273
5,B5,−1.5354
6,B6,−1.7084
7,B7,−1.7313
8,B8,−1.3034
9,B9,−1.3154
10,B10,−1.3519
11,B11,−1.9024
